The values that follow come from US10738294B2, “Tissue factor (TF)—targeted nanotherapy” (Northwestern University, priority 2016, dated 2020).

No end group written: not given here. *: point of attachment. Dodecyl = CCCCCCCCCCCC*

One test has as its target T1, Rat recombinant TF (Rattus norvegicus, UniProt P42533).
T1 construct: purchased Cloud Clone Corp
T1 sequence (P42533 29-295): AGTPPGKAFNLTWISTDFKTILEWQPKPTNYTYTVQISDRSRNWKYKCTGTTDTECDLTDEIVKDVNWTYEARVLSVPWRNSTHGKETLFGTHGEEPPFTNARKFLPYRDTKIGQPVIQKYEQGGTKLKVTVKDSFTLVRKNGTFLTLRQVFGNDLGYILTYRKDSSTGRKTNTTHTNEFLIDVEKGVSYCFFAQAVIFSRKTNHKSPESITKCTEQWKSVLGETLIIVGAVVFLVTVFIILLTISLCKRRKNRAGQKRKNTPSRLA
Briefly: Plate-based in vitro binding assay of TF-targeting peptides to recombinant TF. The following applies: for absorbance (binding to recombinant TF): 450 nm, coated peptides incubated with 75 ng recombinant TF; for dose response of absorbance with recombinant TF: peptide-coated plates, increasing concentrations of recombinant TF. The protocol:
A plate-based binding assay for the TF-targeting peptides was performed as follows. Peptides were dissolved in water at a concentration of 60 μM and coated onto BD Falcon OptiLux 96-well plates (BD Biosciences, Franklin Lakes, N.J.) by incubating them at 37° C. for 2 hours, then at 4° C. overnight. Next, wells were blocked using Superblock phosphate buffered saline (PBS) blocking buffer (200 μL per well, Thermo Scientific, Waltham, Mass.) for 2 hours at room temperature, then washed two times with water. Rat recombinant TF (Cloud Clone Corp, Houston, Tex.) was added in amounts of 12.5-75.0 ng, dissolved in PBS for a total volume of 50 μL/well and incubated at room temperature for 4 hours. Plates were rinsed with water twice, then blocked with Superblock PBS blocking buffer for 30 minutes at room temperature. Colorimetric immunodetection was then performed by incubating wells with anti-TF antibody (Cat. #: ab104513, rabbit polyclonal, Abcam, Cambridge, Mass.) dissolved in Superblock PBS blocking buffer (1:5000) at 4° C. overnight. Wells were washed in water 4 times, and then incubated with a secondary goat-anti-rabbit antibody (Thermo scientific, Rockford, Ill.) conjugated to horseradish peroxidase and dissolved 1:5000 in Superblock PBS blocking buffer for 2 hours at room temperature. Wells were then rinsed 4 times in water, developed using TMB developing solution (TMB Substrate, Thermo Scientific, Waltham, Mass.) for 15 minutes, then stopped with 0.18 M H2SO4 (Sigma Aldrich, St. Louis, Mo.). Plates were immediately read using an Epoch plate reader (BioTek, Winooski, Vt.) at 450 nm. Wells were coated in triplicate, and the assay was performed three times. Treatment groups were each peptide as stated above. Negative controls were wells coated with blocking buffer rather than peptide, and positive controls were wells coated with rat recombinant TF (Cloud Clone Corp) at 12.5 and 25 ng/well.

The subject of the next test is injured liver. Briefly: Fluorescent microscopy of nanofiber binding in liver and other organs after liver punch injury. Type of test: in vivo. To be noted: rat liver punch model, tail vein injection, fluorescently labeled nanofiber. As to the method:
(§1) At the end of 30 minutes, animals were euthanized.
In situ perfusion with 400 mL of a PBS solution was performed, and organs including the kidneys, spleen, lung, uninjured liver, and injured lobe of the liver were collected for tissue processing. Samples were fixed in 2% paraformaldehyde for 2 hours, then 30% sucrose overnight. Samples were then frozen in Tissue-Tek OTC compound (Sakura Finetek, Torrance, Calif.) over liquid nitrogen and stored at −20° C. A LEICA CM 1950 cryostat (LEICA Biosystems, Buffalo Grove, Ill.) was used to cut samples into 10-μm sections, which were stained with 4′,6-diamidino-2-phenylindole (DAPI, Invitrogen, Grand Island, N.Y.), and fixed with ProLong® Gold antifade reagent (Life Technologies, Eugene, Oreg.). […]
Digital images were acquired using a Zeiss LSM-510 microscope (Hallbergmoos, Germany) with a 20× objective. The HE CY3 filter (Zeiss filter #43) using excitation and emission wavelength 550-575 nm and 605-670 nm, respectively, was used to assess PA fluorescence. […] The green fluorescent protein filter (Zeiss filter #38) using excitation and emission wavelengths of 470-495 nm and 525-550 nm, respectively, was used to assess tissue auto-fluorescence.

For the next test, the system named is Sprague Dawley rats. Briefly: Liver punch hemorrhage model, blood loss. The class given is in vivo. To be noted: % total blood volume, rat liver punch model, 30 minutes, 2.5 mg PA by tail vein. The protocol:
as §1
Blood loss was presented as % total blood volume. […] Data were log transformed for analysis.

For “A2V2K2—C12 (KKAAVVK) [non-specific peptide, non-specific peptide, consisting of the filler peptide, selected as a non-targeted control]”, in the test with Rat recombinant TF, the “absorbance (binding to recombinant TF)” value was 0.2±0.03. “KKAAVV(K)-C12 (KKAAVVK(Dodecyl)-NH2; not fully specified; printed as KKAAVV(K)-C12) [non-specific PA nanofiber]”: the “fluorescence in injured liver” value with injured liver is reported as “No fluorescence was observed”. In the test on Sprague Dawley rats, this molecule yielded a total blood loss of 21±2%. With RLMTQDCLQQRSK, in the test with Rat recombinant TF, the “absorbance (binding to recombinant TF)” value is 0.29±0.02 and the “dose response of absorbance with recombinant TF” value is on record as “increased absorbance with increasing concentrations of recombinant TF”. Take EGRNCETHKDDQL: the “absorbance (binding to recombinant TF)” value in the test with Rat recombinant TF is 0.19±0.3. In the case of RTLAFVRFK, in the test with Rat recombinant TF, the “absorbance (binding to recombinant TF)” value is 0.28±0.03 and the “dose response of absorbance with recombinant TF” value is on record as “increased absorbance with increasing concentrations of recombinant TF”.

B1: recombinant TF: rat recombinant tissue factor (Cloud Clone Corp) coated on wells as positive control (protein)
chain: AGTPPGKAFNLTWISTDFKTILEWQPKPTNYTYTVQISDRSRNWKYKCTGTTDTECDLTDEIVKDVNWTYEARVLSVPWRNSTHGKETLFGTHGEEPPFTNARKFLPYRDTKIGQPVIQKYEQGGTKLKVTVKDSFTLVRKNGTFLTLRQVFGNDLGYILTYRKDSSTGRKTNTTHTNEFLIDVEKGVSYCFFAQAVIFSRKTNHKSPESITKCTEQWKSVLGE
As for B1, in the test with Rat recombinant TF, the “absorbance (binding to recombinant TF)” value is given as 0.32±0.01.
